Measurements reported in PMC5785340, “MaRAP2‐4, a waterlogging‐responsive ERF from Mentha, regulates bidirectional sugar transporter AtSWEET10 to modulate stress response in Arabidopsis”.

B1: AtSWEET10 promoter probe with DRE only (dsDNA)
DNA 1: AATTTCGCATGCCGACATCAATGTGCGCACAACA
DNA 2: TGTTGTGCGCACATTGATGTCGGCATGCGAAATT
B2: AtSWEET10 promoter probe with overlapping DRE and GCC (dsDNA)
DNA 1: ATGATTCACGGCCGCCGACGCCGTTCGTTACCA
DNA 2: TGGTAACGAACGGCGTCGGCGGCCGTGAATCAT

Molecular target: MaRAP2-4 (Mentha arvensis, UniProt A0A1Z2X6Y3 1-315)
Test: EMSA; DIG Gel Shift Kit 2nd Generation (Roche), manufacturer's protocol; buffer, pH and temperature not stated
Conditions: protein: recombinant; tags: GST (pGEX-4T2); label: DIG

MaRAP2-4, sequence (A0A1Z2X6Y3 entry or part of it): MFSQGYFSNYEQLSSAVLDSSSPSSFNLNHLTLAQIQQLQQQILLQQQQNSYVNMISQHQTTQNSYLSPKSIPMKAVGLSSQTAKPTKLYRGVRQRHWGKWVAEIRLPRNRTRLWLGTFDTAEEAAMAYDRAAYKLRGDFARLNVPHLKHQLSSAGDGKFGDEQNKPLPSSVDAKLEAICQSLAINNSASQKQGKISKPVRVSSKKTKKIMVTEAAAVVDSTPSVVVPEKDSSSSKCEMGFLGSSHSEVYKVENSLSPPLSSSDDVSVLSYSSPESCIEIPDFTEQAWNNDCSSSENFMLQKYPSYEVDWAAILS

Binder	binding result
B1	binds
B2	binds
